# In patent US9958461B2, “Detection of protein to protein interactions” (THE GOVERNING COUNCIL OF THE UNIVERSITY OF TORONTO, priority 2013, dated 2018):
# What was measured:
# EGFR-L858R = target: T1, EGFR-L858R (Homo sapiens, UniProt P00533, L858R); assay: MaMTH EGFR-interactor screen, lentiviral preys against EGFR-L858R bait (interaction score); format: cell-based; settings: MaMTH interaction score of prey with EGFR-L858R bait
# T1 construct: with the advantage of testing full-length integral membrane proteins; (GGGGS)2 linker-Cub (human ubiquitin aa 35-76)-GAL4(1-147)-mNFkB(364-550) (C); expressed in transfected cells
# Method in brief: (§1)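 5×GAL4UAS-luciferase HEK293T reporter cells were lentivirally infected with preys (MOI ~0.3-0.4) and puromycin-selected ≥48 h. They were then transfected in triplicate with the EGFR bait, and luciferase was read 24 h later. Score is fold-change over averaged negative-control preys; >1 denotes interaction.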
# EGFR-Wt [1] = assay: MaMTH EGFR-interactor screen, lentiviral preys against EGFR-wildtype bait (interaction score); format: cell-based, human; settings: ratio of EGFR-Wt mean to EGFR-L858R mean interaction score
# Method in brief: as §1
# EGFR-Wt [2] = target: T2, EGFR-Wt (Homo sapiens, UniProt P00533); assay: as above; format: cell-based; settings: MaMTH interaction score of prey with EGFR-Wt bait, mean
# T2 construct: with the advantage of testing full-length integral membrane proteins; (GGGGS)2 linker-Cub (human ubiquitin aa 35-76)-GAL4(1-147)-mNFkB(364-550) (C); expressed in transfected cells
# Method in brief: as §1
EGFR-L858R mean (EGFR-L858R),EGFR-Wt mean (EGFR-Wt [2]),Molecule,Wt/L858R (EGFR-Wt [1])
1.14,0.87,"MED28 (protein, UniProt Q9H204 1-178, looked up) Mediator of RNA polymerase II …: MAAPLGGMFSGQPPGPPQAPPGLPGQASLLQAAPGAPRPSSSTLVDELESSFEACFASLVSQDYVNGTDQEEIRTGVDQCIQKFLDIARQTECFFLQKRLQLSVQKPEQVIKEDVSELRNELQRKDALVQKHLTKLRHWQQVLEDINVQHKKPADIPQGSLAYLEQASANIPAPLKPT",0.76
1.06,0.79,"BCAR3 (protein, UniProt O75815 2-825, looked up) Breast cancer anti-estrogen …: AAGKFASLPRNMPVNHQFPLASSMDLLSSRSPLAEHRPDAYQDVSIHGTLPRKKKGPPPIRSCDDFSHMGTLPHSKSPRQNSPVTQDGIQESPWQDRHGETFTFRDPHLLDPTVEYVKFSKERHIMDRTPEKLKKELEEELLLSSEDLRSHAWYHGRIPRQVSENLVQRDGDFLVRDSLSSPGNFVLTCQWKNLAQHFKINRTVLRLSEAYSRVQYQFEMESFDSIPGLVRCYVGNRRPISQQSGAIIFQPINRTVPLRCLEEHYGTSPGQAREGSLTKGRPDVAKRLSLTMGGVQAREQNLPRGNLLRNKEKSGSQPACLDHMQDRRALSLKAHQSESYLPIGCKLPPQSSGVDTSPCPNSPVFRTGSEPALSPAVVRRVSSDARAGEALRGSDSQLCPKPPPKPCKVPFLKVPSSPSAWLNSEANYCELNPAFATGCGRGAKLPSCAQGSHTELLTAKQNEAPGPRNSGVNYLILDDDDRERPWEPAAAQMEKGQWDKGEFVTPLLETVSSFRPNEFESKFLPPENKPLETAMLKRAKELFTNNDPKVIAQHVLSMDCRVARILGVSEEMRRNMGVSSGLELITLPHGHQLRLDIIERHNTMAIGIAVDILGCTGTLEDRAATLSKIIQVAVELKDSMGDLYSFSALMKALEMPQITRLEKTWTALRHQYTQTAILYEKQLKPFSKLLHEGRESTCVPPNNVSVPLLMPLVTLMERQAVTFEGTDMWEKNDQSCEIMLNHLATARFMAEAADSYRMNAERILAGFQPDEEMNEICKTEFQMRLLWGSKGAQVNQTERYEKFNQILTALSRKLEPPPVKQAEL",0.75
13.65,10.25,"CRKL (protein, UniProt P46109 1-303, looked up) Crk-like protein: MSSARFDSSDRSAWYMGPVSRQEAQTRLQGQRHGMFLVRDSSTCPGDYVLSVSENSRVSHYIINSLPNRRFKIGDQEFDHLPALLEFYKIHYLDTTTLIEPAPRYPSPPMGSVSAPNLPTAEDNLEYVRTLYDFPGNDAEDLPFKKGEILVIIEKPEEQWWSARNKDGRVGMIPVPYVEKLVRSSPHGKHGNRNSNSYGIPEPAHAYAQPQTTTPLPAVSGSPGAAITPLPSTQNGPVFAKAIQKRVPCAYDKTALALEVGDIVKVTRMNINGQWEGEVNGRKGLFPFTHVKIFDPQNPDENE",0.75
2.92,2.33,"SH2D3C (protein, UniProt Q8N5H7 1-860, looked up) SH2 domain-containing protein …: MTEGTKKTSKKFKFFKFKGFGSLSNLPRSFTLRRSSASISRQSHLEPDTFEATQDDMVTVPKSPPAYARSSDMYSHMGTMPRPSIKKAQNSQAARQAQEAGPKPNLVPGGVPDPPGLEAAKEVMVKATGPLEDTPAMEPNPSAVEVDPIRKPEVPTGDVEEERPPRDVHSERAAGEPEAGSDYVKFSKEKYILDSSPEKLHKELEEELKLSSTDLRSHAWYHGRIPREVSETLVQRNGDFLIRDSLTSLGDYVLTCRWRNQALHFKINKVVVKAGESYTHIQYLFEQESFDHVPALVRYHVGSRKAVSEQSGAIIYCPVNRTFPLRYLEASYGLGQGSSKPASPVSPSGPKGSHMKRRSVTMTDGLTADKVTRSDGCPTSTSLPRPRDSIRSCALSMDQIPDLHSPMSPISESPSSPAYSTVTRVHAAPAAPSATALPASPVARRSSEPQLCPGSAPKTHGESDKGPHTSPSHTLGKASPSPSLSSYSDPDSGHYCQLQPPVRGSREWAATETSSQQARSYGERLKELSENGAPEGDWGKTFTVPIVEVTSSFNPATFQSLLIPRDNRPLEVGLLRKVKELLAEVDARTLARHVTKVDCLVARILGVTKEMQTLMGVRWGMELLTLPHGRQLRLDLLERFHTMSIMLAVDILGCTGSAEERAALLHKTIQLAAELRGTMGNMFSFAAVMGALDMAQISRLEQTWVTLRQRHTEGAILYEKKLKPFLKSLNEGKEGPPLSNTTFPHVLPLITLLECDSAPPEGPEPWGSTEHGVEVVLAHLEAARTVAHHGGLYHTNAEVKLQGFQARPELLEVFSTEFQMRLLWGSQGASSSQARRYEKFDKVLTALSHKLEPAVRSSEL",0.80
1.83,0.28,"SOS2 (protein, UniProt Q07890 1-1332, looked up) Son of sevenless homolog 2: MQQAPQPYEFFSEENSPKWRGLLVSALRKVQEQVHPTLSANEESLYYIEELIFQLLNKLCMAQPRTVQDVEERVQKTFPHPIDKWAIADAQSAIEKRKRRNPLLLPVDKIHPSLKEVLGYKVDYHVSLYIVAVLEYISADILKLAGNYVFNIRHYEISQQDIKVSMCADKVLMDMFDQDDIGLVSLCEDEPSSSGELNYYDLVRTEIAEERQYLRELNMIIKVFREAFLSDRKLFKPSDIEKIFSNISDIHELTVKLLGLIEDTVEMTDESSPHPLAGSCFEDLAEEQAFDPYETLSQDILSPEFHEHFNKLMARPAVALHFQSIADGFKEAVRYVLPRLMLVPVYHCWHYFELLKQLKACSEEQEDRECLNQAITALMNLQGSMDRIYKQYSPRRRPGDPVCPFYSHQLRSKHLAIKKMNEIQKNIDGWEGKDIGQCCNEFIMEGPLTRIGAKHERHIFLFDGLMISCKPNHGQTRLPGYSSAEYRLKEKFVMRKIQICDKEDTCEHKHAFELVSKDENSIIFAAKSAEEKNNWMAALISLHYRSTLDRMLDSVLLKEENEQPLRLPSPEVYRFVVKDSEENIVFEDNLQSRSGIPIIKGGTVVKLIERLTYHMYADPNFVRTFLTTYRSFCKPQELLSLLIERFEIPEPEPTDADKLAIEKGEQPISADLKRFRKEYVQPVQLRILNVFRHWVEHHFYDFERDLELLERLESFISSVRGKAMKKWVESIAKIIRRKKQAQANGVSHNITFESPPPPIEWHISKPGQFETFDLMTLHPIEIARQLTLLESDLYRKVQPSELVGSVWTKEDKEINSPNLLKMIRHTTNLTLWFEKCIVEAENFEERVAVLSRIIEILQVFQDLNNFNGVLEIVSAVNSVSVYRLDHTFEALQERKRKILDEAVELSQDHFKKYLVKLKSINPPCVPFFGIYLTNILKTEEGNNDFLKKKGKDLINFSKRRKVAEITGEIQQYQNQPYCLRIEPDMRRFFENLNPMGSASEKEFTDYLFNKSLEIEPRNCKQPPRFPRKSTFSLKSPGIRPNTGRHGSTSGTLRGHPTPLEREPCKISFSRIAETELESTVSAPTSPNTPSTPPVSASSDLSVFLDVDLNSSCGSNSIFAPVLLPHSKSFFSSCGSLHKLSEEPLIPPPLPPRKKFDHDASNSKGNMKSDDDPPAIPPRQPPPPKVKPRVPVPTGAFDGPLHSPPPPPPRDPLPDTPPPVPLRPPEHFINCPFNLQPPPLGHLHRDSDWLRDISTCPNSPSTPPSTPSPRVPRRCYVLSSSQNNLAHPPAPPVPPRQNSSPHLPKLPPKTYKRELSHPPLYRLPLLENAETPQ",0.15
11.76,9.27,"ANKS1A (protein, UniProt Q92625 2-1134, looked up) Ankyrin repeat and SAM …: GKEQELLEAARTGHLPAVEKLLSGKRLSSGFGGGGGGGSGGGGGGSGGGGGGLGSSSHPLSSLLSMWRGPNVNCVDSTGYTPLHHAALNGHKDVVEVLLRNDALTNVADSKGCYPLHLAAWKGDAQIVRLLIHQGPSHTRVNEQNNDNETALHCAAQYGHTEVVKVLLEELTDPTMRNNKFETPLDLAALYGRLEVVKMLLNAHPNLLSCNTKKHTPLHLAARNGHKAVVQVLLDAGMDSNYQTEMGSALHEAALFGKTDVVQILLAAGTDVNIKDNHGLTALDTVRELPSQKSQQIAALIEDHMTGKRSTKEVDKTPPPQPPLISSMDSISQKSQGDVEKAVTELIIDFDANAEEEGPYEALYNAISCHSLDSMASGRSSDQDSTNKEAEAAGVKPAGVRPRERPPPPAKPPPDEEEEDHIDKKYFPLTASEVLSMRPRIHGSAAREEDEHPYELLLTAETKKVVLVDGKTKDHRRSSSSRSQDSAEGQDGQVPEQFSGLLHGSSPVCEVGQDPFQLLCTAGQSHPDGSPQQGACHKASMQLEETGVHAPGASQPSALDQSKRVGYLTGLPTTNSRSHPETLTHTASPHPGGAEEGDRSGARSRAPPTSKPKAELKLSRSLSKSDSDLLTCSPTEDATMGSRSESLSNCSIGKKRLEKSPSFASEWDEIEKIMSSIGEGIDFSQERQKISGLRTLEQSVGEWLESIGLQQYESKLLLNGFDDVHFLGSNVMEEQDLRDIGISDPQHRRKLLQAARSLPKVKALGYDGNSPPSVPSWLDSLGLQDYVHSFLSSGYSSIDTVKNLWELELVNVLKVQLLGHRKRIIASLADRPYEEPPQKPPRFSQLRCQDLLSQTSSPLSQNDSCTGRSADLLLPPGDTGRRRHDSLHDPAAPSRAERFRIQEEHREAKLTLRPPSLAAPYAPVQSWQHQPEKLIFESCGYEANYLGSMLIKDLRGTESTQDACAKMRKSTEHMKKIPTIILSITYKGVKFIDASNKNVIAEHEIRNISCAAQDPEDLCTFAYITKDLQTSHHYCHVFSTVDVNLTYEIILTLGQAFEVAYQLALQAQKSRATGASAAEMIETKSSKPVPKPRVGVRKSALEPPDMDQDAQSHASVSWVVDPKPDSKRSLSTN",0.79
